Molecular target: T1, SET domain of human SETD2 (residue 1435–1711, encompassing the AWS, SET, and post-SET regions) (human, UniProt Q9BYW2 1435-1711)
T1 construct: SETD2, human, residues 1435–1711 (AWS, SET and post-SET regions), in the pET28-MHL vector; The His-tag was not removed for crystallization; A longer construct (1347–1711, 6xHis, Talon beads) was used for the histone methyltransferase assays; also called SETD2 SET domain; recombinant SET domain of SETD2; not shown: His6, N-terminal, kept
T1 sequence (looked up): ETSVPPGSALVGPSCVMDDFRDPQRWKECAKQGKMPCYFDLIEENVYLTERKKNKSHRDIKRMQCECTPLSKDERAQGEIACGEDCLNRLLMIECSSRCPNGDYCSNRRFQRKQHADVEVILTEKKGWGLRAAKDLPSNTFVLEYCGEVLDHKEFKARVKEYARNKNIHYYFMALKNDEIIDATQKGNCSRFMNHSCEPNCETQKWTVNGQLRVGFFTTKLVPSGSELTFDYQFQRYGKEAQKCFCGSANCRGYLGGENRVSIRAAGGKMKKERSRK
Experiment: crystal structure; SETD2 (10 mg/ml) incubated with SAM and H3K36M peptide at a molar ratio of 1:10:10; sitting drop, 20 °C, 0.1 M KSCN, 24% PEG 2000 MME; two ternary complexes, with SAM (2.42 Å) and with SAH (2.4 Å)
Conditions: both partners purified

B1: H3K36M peptide (29-APATGGVMKPHRYRP-43) (peptide)
peptide: APATGGVMKPHRYRP
notes: histone H3 tail, residues 29–43, with K36M; also called H3K36M (29–43) peptide; source: synthetic peptide (Eurogentec for the crystals; Anaspec for the thermal shift assay)
**Q.** Does B1 bind?
**A.** Result: binds
